B1: GST-Irga6, Q9QZ85 E110R; R111E (protein)
chain: MGQLFSSPKSDENNDLPSSFTGYFKKFNTGRKIISQEILNLIELRMRKGNIQLTNSAISDALKEIDSSVLNVAVTGETGSGKSSFINTLRGIGNEEEGAAKTGVVEVTMREHPYKHPNIPNVVFWDLPGIGSTNFPPNTYLEKMKFYEYDFFIIISATRFKKNDIDIAKAISMMKKEFYFVRTKVDSDITNEADGKPQTFDKEKVLQDIRLNCVNTFRENGIAEPPIFLLSNKNVCHYDFPVLMDKLISDLPIYKRHNFMVSLPNITDSVIEKKRQFLKQRIWLEGFAADLVNIIPSLTFLLDSDLETLKKSMKFYRTVFGVDETSLQRLARDWEIEVDQVEAMIKSPAVFKPTDEETIQERLSRYIQEFCLANGYLLPKNSFLKEIFYLKYYFLDMVTEDAKTLLKEICL
B2: GST-Irga6, Q9QZ85 K162E (protein)
chain: MGQLFSSPKSDENNDLPSSFTGYFKKFNTGRKIISQEILNLIELRMRKGNIQLTNSAISDALKEIDSSVLNVAVTGETGSGKSSFINTLRGIGNEEEGAAKTGVVEVTMERHPYKHPNIPNVVFWDLPGIGSTNFPPNTYLEKMKFYEYDFFIIISATRFKENDIDIAKAISMMKKEFYFVRTKVDSDITNEADGKPQTFDKEKVLQDIRLNCVNTFRENGIAEPPIFLLSNKNVCHYDFPVLMDKLISDLPIYKRHNFMVSLPNITDSVIEKKRQFLKQRIWLEGFAADLVNIIPSLTFLLDSDLETLKKSMKFYRTVFGVDETSLQRLARDWEIEVDQVEAMIKSPAVFKPTDEETIQERLSRYIQEFCLANGYLLPKNSFLKEIFYLKYYFLDMVTEDAKTLLKEICL
B3: GST-Irga6, Q9QZ85 M173W (protein)
chain: MGQLFSSPKSDENNDLPSSFTGYFKKFNTGRKIISQEILNLIELRMRKGNIQLTNSAISDALKEIDSSVLNVAVTGETGSGKSSFINTLRGIGNEEEGAAKTGVVEVTMERHPYKHPNIPNVVFWDLPGIGSTNFPPNTYLEKMKFYEYDFFIIISATRFKKNDIDIAKAISWMKKEFYFVRTKVDSDITNEADGKPQTFDKEKVLQDIRLNCVNTFRENGIAEPPIFLLSNKNVCHYDFPVLMDKLISDLPIYKRHNFMVSLPNITDSVIEKKRQFLKQRIWLEGFAADLVNIIPSLTFLLDSDLETLKKSMKFYRTVFGVDETSLQRLARDWEIEVDQVEAMIKSPAVFKPTDEETIQERLSRYIQEFCLANGYLLPKNSFLKEIFYLKYYFLDMVTEDAKTLLKEICL
B4: GST-Irga6, Q9QZ85 K145E (protein)
chain: MGQLFSSPKSDENNDLPSSFTGYFKKFNTGRKIISQEILNLIELRMRKGNIQLTNSAISDALKEIDSSVLNVAVTGETGSGKSSFINTLRGIGNEEEGAAKTGVVEVTMERHPYKHPNIPNVVFWDLPGIGSTNFPPNTYLEKMEFYEYDFFIIISATRFKKNDIDIAKAISMMKKEFYFVRTKVDSDITNEADGKPQTFDKEKVLQDIRLNCVNTFRENGIAEPPIFLLSNKNVCHYDFPVLMDKLISDLPIYKRHNFMVSLPNITDSVIEKKRQFLKQRIWLEGFAADLVNIIPSLTFLLDSDLETLKKSMKFYRTVFGVDETSLQRLARDWEIEVDQVEAMIKSPAVFKPTDEETIQERLSRYIQEFCLANGYLLPKNSFLKEIFYLKYYFLDMVTEDAKTLLKEICL
B5: GST-Irga6, Q9QZ85 E77A (protein)
chain: MGQLFSSPKSDENNDLPSSFTGYFKKFNTGRKIISQEILNLIELRMRKGNIQLTNSAISDALKEIDSSVLNVAVTGATGSGKSSFINTLRGIGNEEEGAAKTGVVEVTMERHPYKHPNIPNVVFWDLPGIGSTNFPPNTYLEKMKFYEYDFFIIISATRFKKNDIDIAKAISMMKKEFYFVRTKVDSDITNEADGKPQTFDKEKVLQDIRLNCVNTFRENGIAEPPIFLLSNKNVCHYDFPVLMDKLISDLPIYKRHNFMVSLPNITDSVIEKKRQFLKQRIWLEGFAADLVNIIPSLTFLLDSDLETLKKSMKFYRTVFGVDETSLQRLARDWEIEVDQVEAMIKSPAVFKPTDEETIQERLSRYIQEFCLANGYLLPKNSFLKEIFYLKYYFLDMVTEDAKTLLKEICL
B6: GST-Irga6, Q9QZ85 K161E (protein)
chain: MGQLFSSPKSDENNDLPSSFTGYFKKFNTGRKIISQEILNLIELRMRKGNIQLTNSAISDALKEIDSSVLNVAVTGETGSGKSSFINTLRGIGNEEEGAAKTGVVEVTMERHPYKHPNIPNVVFWDLPGIGSTNFPPNTYLEKMKFYEYDFFIIISATRFEKNDIDIAKAISMMKKEFYFVRTKVDSDITNEADGKPQTFDKEKVLQDIRLNCVNTFRENGIAEPPIFLLSNKNVCHYDFPVLMDKLISDLPIYKRHNFMVSLPNITDSVIEKKRQFLKQRIWLEGFAADLVNIIPSLTFLLDSDLETLKKSMKFYRTVFGVDETSLQRLARDWEIEVDQVEAMIKSPAVFKPTDEETIQERLSRYIQEFCLANGYLLPKNSFLKEIFYLKYYFLDMVTEDAKTLLKEICL
B7: GST-Irga6, Q9QZ85 S132R (protein)
chain: MGQLFSSPKSDENNDLPSSFTGYFKKFNTGRKIISQEILNLIELRMRKGNIQLTNSAISDALKEIDSSVLNVAVTGETGSGKSSFINTLRGIGNEEEGAAKTGVVEVTMERHPYKHPNIPNVVFWDLPGIGRTNFPPNTYLEKMKFYEYDFFIIISATRFKKNDIDIAKAISMMKKEFYFVRTKVDSDITNEADGKPQTFDKEKVLQDIRLNCVNTFRENGIAEPPIFLLSNKNVCHYDFPVLMDKLISDLPIYKRHNFMVSLPNITDSVIEKKRQFLKQRIWLEGFAADLVNIIPSLTFLLDSDLETLKKSMKFYRTVFGVDETSLQRLARDWEIEVDQVEAMIKSPAVFKPTDEETIQERLSRYIQEFCLANGYLLPKNSFLKEIFYLKYYFLDMVTEDAKTLLKEICL
B8: GST-Irga6, Q9QZ85 T88R (protein)
chain: MGQLFSSPKSDENNDLPSSFTGYFKKFNTGRKIISQEILNLIELRMRKGNIQLTNSAISDALKEIDSSVLNVAVTGETGSGKSSFINRLRGIGNEEEGAAKTGVVEVTMERHPYKHPNIPNVVFWDLPGIGSTNFPPNTYLEKMKFYEYDFFIIISATRFKKNDIDIAKAISMMKKEFYFVRTKVDSDITNEADGKPQTFDKEKVLQDIRLNCVNTFRENGIAEPPIFLLSNKNVCHYDFPVLMDKLISDLPIYKRHNFMVSLPNITDSVIEKKRQFLKQRIWLEGFAADLVNIIPSLTFLLDSDLETLKKSMKFYRTVFGVDETSLQRLARDWEIEVDQVEAMIKSPAVFKPTDEETIQERLSRYIQEFCLANGYLLPKNSFLKEIFYLKYYFLDMVTEDAKTLLKEICL
B9: GST-Irga6, Q9QZ85 P197H (protein)
chain: MGQLFSSPKSDENNDLPSSFTGYFKKFNTGRKIISQEILNLIELRMRKGNIQLTNSAISDALKEIDSSVLNVAVTGETGSGKSSFINTLRGIGNEEEGAAKTGVVEVTMERHPYKHPNIPNVVFWDLPGIGSTNFPPNTYLEKMKFYEYDFFIIISATRFKKNDIDIAKAISMMKKEFYFVRTKVDSDITNEADGKHQTFDKEKVLQDIRLNCVNTFRENGIAEPPIFLLSNKNVCHYDFPVLMDKLISDLPIYKRHNFMVSLPNITDSVIEKKRQFLKQRIWLEGFAADLVNIIPSLTFLLDSDLETLKKSMKFYRTVFGVDETSLQRLARDWEIEVDQVEAMIKSPAVFKPTDEETIQERLSRYIQEFCLANGYLLPKNSFLKEIFYLKYYFLDMVTEDAKTLLKEICL
B10: GST-Irga6, Q9QZ85 N212R (protein)
chain: MGQLFSSPKSDENNDLPSSFTGYFKKFNTGRKIISQEILNLIELRMRKGNIQLTNSAISDALKEIDSSVLNVAVTGETGSGKSSFINTLRGIGNEEEGAAKTGVVEVTMERHPYKHPNIPNVVFWDLPGIGSTNFPPNTYLEKMKFYEYDFFIIISATRFKKNDIDIAKAISMMKKEFYFVRTKVDSDITNEADGKPQTFDKEKVLQDIRLRCVNTFRENGIAEPPIFLLSNKNVCHYDFPVLMDKLISDLPIYKRHNFMVSLPNITDSVIEKKRQFLKQRIWLEGFAADLVNIIPSLTFLLDSDLETLKKSMKFYRTVFGVDETSLQRLARDWEIEVDQVEAMIKSPAVFKPTDEETIQERLSRYIQEFCLANGYLLPKNSFLKEIFYLKYYFLDMVTEDAKTLLKEICL
B11: GST-Irga6, Q9QZ85 I209R (protein)
chain: MGQLFSSPKSDENNDLPSSFTGYFKKFNTGRKIISQEILNLIELRMRKGNIQLTNSAISDALKEIDSSVLNVAVTGETGSGKSSFINTLRGIGNEEEGAAKTGVVEVTMERHPYKHPNIPNVVFWDLPGIGSTNFPPNTYLEKMKFYEYDFFIIISATRFKKNDIDIAKAISMMKKEFYFVRTKVDSDITNEADGKPQTFDKEKVLQDRRLNCVNTFRENGIAEPPIFLLSNKNVCHYDFPVLMDKLISDLPIYKRHNFMVSLPNITDSVIEKKRQFLKQRIWLEGFAADLVNIIPSLTFLLDSDLETLKKSMKFYRTVFGVDETSLQRLARDWEIEVDQVEAMIKSPAVFKPTDEETIQERLSRYIQEFCLANGYLLPKNSFLKEIFYLKYYFLDMVTEDAKTLLKEICL
B12: GST-Irga6, Q9QZ85 E106R (protein)
chain: MGQLFSSPKSDENNDLPSSFTGYFKKFNTGRKIISQEILNLIELRMRKGNIQLTNSAISDALKEIDSSVLNVAVTGETGSGKSSFINTLRGIGNEEEGAAKTGVVRVTMERHPYKHPNIPNVVFWDLPGIGSTNFPPNTYLEKMKFYEYDFFIIISATRFKKNDIDIAKAISMMKKEFYFVRTKVDSDITNEADGKPQTFDKEKVLQDIRLNCVNTFRENGIAEPPIFLLSNKNVCHYDFPVLMDKLISDLPIYKRHNFMVSLPNITDSVIEKKRQFLKQRIWLEGFAADLVNIIPSLTFLLDSDLETLKKSMKFYRTVFGVDETSLQRLARDWEIEVDQVEAMIKSPAVFKPTDEETIQERLSRYIQEFCLANGYLLPKNSFLKEIFYLKYYFLDMVTEDAKTLLKEICL
B13: GST-Irga6, Q9QZ85 R159E (protein)
chain: MGQLFSSPKSDENNDLPSSFTGYFKKFNTGRKIISQEILNLIELRMRKGNIQLTNSAISDALKEIDSSVLNVAVTGETGSGKSSFINTLRGIGNEEEGAAKTGVVEVTMERHPYKHPNIPNVVFWDLPGIGSTNFPPNTYLEKMKFYEYDFFIIISATEFKKNDIDIAKAISMMKKEFYFVRTKVDSDITNEADGKPQTFDKEKVLQDIRLNCVNTFRENGIAEPPIFLLSNKNVCHYDFPVLMDKLISDLPIYKRHNFMVSLPNITDSVIEKKRQFLKQRIWLEGFAADLVNIIPSLTFLLDSDLETLKKSMKFYRTVFGVDETSLQRLARDWEIEVDQVEAMIKSPAVFKPTDEETIQERLSRYIQEFCLANGYLLPKNSFLKEIFYLKYYFLDMVTEDAKTLLKEICL

These binders were tested against ROP5 of T. gondii strain RH-YFP (isoforms not told apart), F2YGR7 (assay: pull-down (quantitated Western blot)). Conditions: chain shown with the change; 25 µg protein/100 µl 1:1 bead suspension; RH-YFP strain T. gondii lysates; 3E2 antibody (anti-ROP5); GST signal subtracted; parent: est. 100; read off a plot.
ROP5 of T. gondii strain RH-YFP (isoforms not told apart), F2YGR7, sequence (F2YGR7 25-549): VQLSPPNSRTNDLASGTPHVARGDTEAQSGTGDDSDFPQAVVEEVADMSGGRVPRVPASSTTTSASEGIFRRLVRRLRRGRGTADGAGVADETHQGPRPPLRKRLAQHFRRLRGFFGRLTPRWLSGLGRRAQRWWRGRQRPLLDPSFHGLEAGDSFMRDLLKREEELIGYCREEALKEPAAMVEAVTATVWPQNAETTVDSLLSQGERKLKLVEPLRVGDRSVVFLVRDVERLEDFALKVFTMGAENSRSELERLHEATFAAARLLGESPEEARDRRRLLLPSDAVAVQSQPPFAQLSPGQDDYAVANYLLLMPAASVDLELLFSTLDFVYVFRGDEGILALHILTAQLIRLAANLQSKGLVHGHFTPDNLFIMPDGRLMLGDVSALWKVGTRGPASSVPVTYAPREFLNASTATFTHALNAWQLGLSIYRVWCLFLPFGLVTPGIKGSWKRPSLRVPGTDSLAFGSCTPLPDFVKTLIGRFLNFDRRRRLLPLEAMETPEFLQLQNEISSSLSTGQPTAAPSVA

Q: B1 was tested. Which percent of parent (% of wild-type intensity) did it give?
A: 17

Q: How did the percent of parent (% of wild-type intensity) turn out when B2 was run?
A: 3.5

Q: Which percent of parent (% of wild-type intensity) does the source give for B3 here?
A: 25

Q: B4 was tested. Which percent of parent (% of wild-type intensity) did it give?
A: 100

Q: With B5 as the binder, how does the percent of parent (% of wild-type intensity) read?
A: 34

Q: Which percent of parent (% of wild-type intensity) does the source give for B6 here?
A: 1

Q: For B7, which percent of parent (% of wild-type intensity) is on record?
A: 45

Q: Which percent of parent (% of wild-type intensity) does the source give for B8 here?
A: 51

Q: How did the percent of parent (% of wild-type intensity) turn out when B9 was run?
A: 2.8

Q: With B10 as the binder, how does the percent of parent (% of wild-type intensity) read?
A: 2.7

Q: Which percent of parent (% of wild-type intensity) does the source give for B11 here?
A: 5

Q: How did the percent of parent (% of wild-type intensity) turn out when B12 was run?
A: 110

Q: For B13, which percent of parent (% of wild-type intensity) is on record?
A: 5.5
